Entries after “also recorded” stand apart in the source; their conditions may differ.
System: sclerostin mRNA in MLO-Y4 cells
Test: Sclerostin mRNA in MLO-Y4 cells, qRT-PCR
Assay type: cell-based, mouse
Details: MLO-Y4, irisin 16 hours
Protocol: Cells were stained with Hoechst 33342 and Eth-D1, and analyzed to determine the percentage of cell death. *: p<0.05, ***: p<0.001 vs 0.3 mM H2O2 treated condition. […] MLO-Y4 cells were seeded and incubated until 60% cell density. The cells were incubated with Freestyle293 medium for 4 hours and were treated with indicated concentrations of irisin for 16 hours. Sclerostin mRNA level was analyzed by qRT-PCR. Cyclophilin was used as a control house-keeping gene.
MLO-Y4 cells were incubated in serum free medium for 3 hours followed by treatment of indicated concentrations of irisin for indicated time (FIG. 6A), or followed by treatment of 0 or 10 nM irisin in the presence of indicated integrin inhibitors or their control peptide for 16 hours (FIG. 6B). Sclerostin mRNA level was analyzed by qPCR.
Certain materials and methods were used to generate the results described herein. […] Cells were stained with Hoechst 33342 (ThermoFisher Scientific, catalog number H3570) and Eth-D1 (ThermoFisher Scientific, catalog number E1169) and analyzed to determine the percentage of cell death using ImageJ. […] Co-precipitated irisin was analyzed by immunoblot analysis against flag tag (Sigma Aldrich, catalog number A8592). […] Sclerostin mRNA level was analyzed by qPCR (FIG. 7A). […]

B1: irisin: secreted cleaved form of FNDC5; recombinant human/mouse irisin with C-terminal his tag produced in HEK293 cells (protein)
chain: DSPSAPVNVTVRHLKANSAVVSWDVLEDEVVIGFAISQQKKDVRMLRFIQEVNTTTRSCALWDLEEDTEYIVHVQAISIQGQSPASEPVLFKTPREAEKMASKNKDEVTMKE
modifications: left off: small tags and cut ends
notes: secreted cleaved form of FNDC5; recombinant human/mouse irisin with C-terminal his tag produced in HEK293 cells
Question: With B1 as the molecule, how does the “sclerostin mRNA level” value read?
Answer: increased; also recorded: raised the mRNA level of sclerostin in the osteocyte cultures in a dose-dependent manner

From patent publication US20210063414A1, “METHODS FOR PREVENTING AND/OR TREATING BONE LOSS CONDITIONS BY MODULATING IRISIN” (Dana-Farber Cancer Institute, Inc., priority 2018, published 2021)
